Changes are numbered by the printed parent chain.
T1: His-tagged human Ang1 (R&D systems, 923-AN/CF) (human, UniProt Q15389 20-498, limits assumed)
T1 construct: Bought protein; also called hAng1-his; not shown: His tag
T1 sequence (looked up): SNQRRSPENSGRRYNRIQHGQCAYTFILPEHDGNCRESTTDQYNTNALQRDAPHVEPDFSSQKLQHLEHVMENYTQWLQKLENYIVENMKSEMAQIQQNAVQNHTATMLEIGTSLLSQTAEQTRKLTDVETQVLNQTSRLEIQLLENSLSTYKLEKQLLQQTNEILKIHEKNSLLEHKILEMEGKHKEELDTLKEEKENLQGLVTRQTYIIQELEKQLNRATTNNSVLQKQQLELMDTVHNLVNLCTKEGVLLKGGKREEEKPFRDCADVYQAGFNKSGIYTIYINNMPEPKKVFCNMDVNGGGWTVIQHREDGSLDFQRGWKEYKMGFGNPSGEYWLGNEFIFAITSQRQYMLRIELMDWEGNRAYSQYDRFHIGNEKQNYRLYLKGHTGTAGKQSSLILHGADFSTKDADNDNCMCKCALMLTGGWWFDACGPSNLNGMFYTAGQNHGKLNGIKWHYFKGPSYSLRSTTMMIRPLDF

T2: Ang2 immobilized on a biosensor (Octet off-rate screening) (Homo sapiens (Human), UniProt O15123 19-496)
T2 construct: also called Ang2 antigen; not shown: It is a His tag if hAng2-his (R&D 623-AN/CF) was used, or an Fc if hAng2-Fc (PharmAbcine) was used
T2 sequence: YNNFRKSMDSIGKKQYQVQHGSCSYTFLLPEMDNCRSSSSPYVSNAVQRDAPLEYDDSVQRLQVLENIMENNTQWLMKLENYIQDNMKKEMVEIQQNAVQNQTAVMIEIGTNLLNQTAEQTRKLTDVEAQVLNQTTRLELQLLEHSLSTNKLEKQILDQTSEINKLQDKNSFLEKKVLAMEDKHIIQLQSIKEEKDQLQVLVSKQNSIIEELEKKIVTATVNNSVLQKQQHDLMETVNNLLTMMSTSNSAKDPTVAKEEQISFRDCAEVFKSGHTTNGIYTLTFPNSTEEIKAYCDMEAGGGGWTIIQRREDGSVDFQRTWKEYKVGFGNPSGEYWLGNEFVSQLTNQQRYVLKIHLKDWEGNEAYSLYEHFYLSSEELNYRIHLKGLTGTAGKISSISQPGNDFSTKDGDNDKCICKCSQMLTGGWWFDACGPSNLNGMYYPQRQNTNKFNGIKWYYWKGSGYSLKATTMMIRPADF

B1: No. O4 optimized clone (screening of scFv phage library of No. 8 CDR3 variants) (scFv, part only; not given: scFv linker, part only)
scFv, part: QVQLVESGGGLVKPGGSLRLSCAASGFTFSSYSMNWVRQAPGKGLEWVSSISASDGATYYADSVRGRFTISRDNSRSTLYLQMNSLRAEDTAVYYCAKTLAGYSGPMGGMDVWGQGTTVTVSSDIQMTQSPSSLSASVGDRVTITCRASRDISNYLAWYQQKPGKAPKSLIYGASNLQSGVSSQFSGSGSGTDFTLTINSLQPEDSATYYCQQYYSYPLTFGGGTKVDIKR
B2: No. 3 monoclonal scFv phage (scFv)
chain: QMQLVQSGGGLVQPGRSLKLSCAASGFSFDDYAMHWVRQAPGKGLEWVATIKDDGSQTYYVDSVKGRFTISRDNAKSSLFLQMNSLRAEDTAVYYCTTEGLMNGLHFDMWGQGTMVTVSSLVLTQPPSVSGAPGQGVTISCTGSSSNIGAGYDVHWYQQFPGTAPKLLISGNNNRPSGLPDRFSGSKSGTSASLAITGLQAEDEADYYCQSYDSRLGVVFGGGTKLTVLG
B3: No. O10 optimized clone (screening of scFv phage library of No. 8 CDR3 variants) (scFv, V domains shown)
VH: QVQLVESGGGLVKPGGSLRLSCAASGFTFSSYSMNWVRQAPGKGLEWVSSISASDGATYYADSVRGRFTISRDNSRSTLYLQMNSLRAEDTAVYYCAKILVGYSGPMGGMDVWGQGTTVTVSS
VL: DIQMTQSPSSLSASVGDRVTITCRASRDISNYLAWYQQKPGKAPKSLIYGASNLQSGVSSQFSGSGSGTDFTLTINSLQPEDSATYYCQQYYSYPLTFGGGTKVDIKR
B4: No. O12 optimized clone (screening of scFv phage library of No. 8 CDR3 variants) (scFv, V domains shown)
VH: B3 VH with I99S, V101A, G102S
VL: B3 VL

Legend:
[1] = target: Ang2 immobilized on a biosensor (Octet off-rate screening) (Homo sapiens (Human)) (UniProt O15123); experiment: dissociation rate screening of optimized clones (method as in Example 3, Octet; not restated)
[2] = target: T1, His-tagged human Ang1 (R&D systems, …); experiment: phage ELISA, antigen coated at 1 µg/ml, anti-M13-HRP
[3] = target: T2, Ang2 immobilized on a biosensor (Octet …); experiment: dissociation rate screening of optimized clones (method as in Example 3, Octet; not restated)

Binder | koff [3] | further results
B1 | – | koff [1]: 9.01e-05 s⁻¹
B2 | – | OD [2]: 0.025 OD
B3 | 3.92e-05 s⁻¹ | –
B4 | 1.7e-05 s⁻¹ | –
